Results reported in patent publication US20100272723A1 (Xencor, published 2010).
Positions count from the first letter of the chain named. Numbers in names are those of the source.

B1: H0L1 (antibody, V domains shown)
VH: EVQLQQSGPELIKPGASVKMSCKASGYTFTSYVMHWVKQKPGQGLEWIGYINPYNDGTKYNEKFKGKATLTSDKSSSTAYMELSSLTSEDSAVYYCARGTYYYGSRVFDYWGQGTTLTVSS
VL: DIVMTQSPATLSLSPGERATLSCRSSKSLLNSNGNTYLYWFQQKPGQSPQLLIYRMSNLASGVPDRFSGSGSGTEFTLTISSLEPEDFAVYYCMQHLEYPFTFGAGTKLEIK
notes: also called 4G7 H0L1
B2: H1L0 (antibody, V domains shown)
VH: EVQLVESGGGLVKPGGSLKLSCAASGYTFTSYVMHWVRQAPGKGLEWIGYINPYNDGTKYNEKFQGRVTISSDKSISTAYMELSSLRSEDTAMYYCARGTYYYGSRVFDYWGQGTLVTVSS
VL: DIVMTQAAPSIPVTPGESVSISCRSSKSLLNSNGNTYLYWFLQRPGQSPQLLIYRMSNLASGVPDRFSGSGSGTAFTLRISRVEAEDVGVYYCMQHLEYPFTFGAGTKLELK
notes: also called 4G7 H1L0
B3: H2L2 (antibody, V domains shown)
VH: QVQLQESGSGLVKPGGSLRLSCAASGYTFTSYVMHWVRQAPGKGLEWMGYINPYNDGTKYNESLKSRVTISSDKSISTAYMELSSLRAEDTAVYYCARGTYYYGSRVFDYWGQGTLVTVSS
VL: B1 VL with A9S, T10S, L13A, P15V, E17D, A19V, L21I, E84Q, F88V
notes: also called 4G7 H2L2
B4: H2L1 (antibody, V domains shown)
VH: B3 VH
VL: B1 VL
notes: also called 4G7 H2L1
B5: H2L0 (antibody, V domains shown)
VH: B3 VH
VL: B2 VL
notes: also called 4G7 H2L0
B6: H0L3 (antibody, V domains shown)
VH: B1 VH
VL: B1 VL with L13V, L21I, Q42L, E75D, S82R, L83V, P85A, F88V, A89G
notes: also called 4G7 H0L3
B7: H3L1 (antibody, V domains shown)
VH: B2 VH with K13Q, G16R, K19R, A40M, I48M, S71T, I76T, S85R, E89D, M93V
VL: B1 VL
notes: also called 4G7 H3L1
B8: H1L2 (antibody, V domains shown)
VH: B2 VH
VL: B1 VL with A9S, T10S, L13A, P15V, E17D, A19V, L21I, E84Q, F88V
notes: also called 4G7 H1L2
B9: H3L0 (antibody, V domains shown)
VH: B2 VH with K13Q, G16R, K19R, A40M, I48M, S71T, I76T, S85R, E89D, M93V
VL: B2 VL
notes: also called 4G7 H3L0
B10: H0L2 (antibody, V domains shown)
VH: B1 VH
VL: B1 VL with A9S, T10S, L13A, P15V, E17D, A19V, L21I, E84Q, F88V
notes: also called 4G7 H0L2
B11: H1 / L1.67 (antibody, V domains shown)
VH: B2 VH
VL: B1 VL with F101V
notes: vs H1L1 (Kabat): VL F96V; also called 4G7 H1_L1.67
B12: H1.204 / L1.163 (antibody, V domains shown)
VH: B2 VH with D56E, K59E, S105T
VL: B1 VL with L30Q, S32A, G34S, A60N, F101I
notes: vs H1L1 (Kabat): VH D55E/K58E/S100cT; VL L27cQ/S27eA/G29S/A55N/F96I; also called 4G7 H1.204_L1.163
B13: H1.52 / L1.161 (antibody, V domains shown)
VH: B2 VH with S105T
VL: B1 VL with L30Q, S32V, G34S, A60N, F101I
notes: vs H1L1 (Kabat): VH S100cT; VL L27cQ/S27eV/G29S/A55N/F96I; also called 4G7 H1.52_L1.161
B14: H1.201 / L1.162 (antibody, V domains shown)
VH: B2 VH with D56S, S105T
VL: B1 VL with L30Q, S32A, G34A, A60N, F101I
notes: vs H1L1 (Kabat): VH D55S/S100cT; VL L27cQ/S27eA/G29A/A55N/F96I; also called 4G7 H1.201_L1.162
B15: H1.201 / L1.164 (antibody, V domains shown)
VH: B2 VH with D56S, S105T
VL: B1 VL with L30Q, S32A, A60N, F101I
notes: vs H1L1 (Kabat): VH D55S/S100cT; VL L27cQ/S27eA/A55N/F96I; also called 4G7 H1.201_L1.164
B16: H1.204 / L1.162 (antibody, V domains shown)
VH: B2 VH with D56E, K59E, S105T
VL: B1 VL with L30Q, S32A, G34A, A60N, F101I
notes: vs H1L1 (Kabat): VH D55E/K58E/S100cT; VL L27cQ/S27eA/G29A/A55N/F96I; also called 4G7 H1.204_L1.162
B17: H1.202 / L1.162 (antibody, V domains shown)
VH: B2 VH with D56E, S105T
VL: B1 VL with L30Q, S32A, G34A, A60N, F101I
notes: vs H1L1 (Kabat): VH D55E/S100cT; VL L27cQ/S27eA/G29A/A55N/F96I; also called 4G7 H1.202_L1.162
B18: H1.191 / L1.162 (antibody, V domains shown)
VH: B2 VH with K59E, S105T
VL: B1 VL with L30Q, S32A, G34A, A60N, F101I
notes: vs H1L1 (Kabat): VH K58E/S100cT; VL L27cQ/S27eA/G29A/A55N/F96I; also called 4G7 H1.191_L1.162
B19: H1.191 / L1.163 (antibody, V domains shown)
VH: B2 VH with K59E, S105T
VL: B1 VL with L30Q, S32A, G34S, A60N, F101I
notes: vs H1L1 (Kabat): VH K58E/S100cT; VL L27cQ/S27eA/G29S/A55N/F96I; also called 4G7 H1.191_L1.163
B20: H1.203 / L1.162 (antibody, V domains shown)
VH: B2 VH with D56S, K59E, S105T
VL: B1 VL with L30Q, S32A, G34A, A60N, F101I
notes: vs H1L1 (Kabat): VH D55S/K58E/S100cT; VL L27cQ/S27eA/G29A/A55N/F96I; also called 4G7 H1.203_L1.162
B21: H1.52 / L1.163 (antibody, V domains shown)
VH: B2 VH with S105T
VL: B1 VL with L30Q, S32A, G34S, A60N, F101I
notes: vs H1L1 (Kabat): VH S100cT; VL L27cQ/S27eA/G29S/A55N/F96I; also called 4G7 H1.52_L1.163
B22: H1 / L1.96 (antibody, V domains shown)
VH: B2 VH
VL: B1 VL with A60N
notes: vs H1L1 (Kabat): VL A55N; also called 4G7 H1_L1.96
B23: H1.202 / L1.163 (antibody, V domains shown)
VH: B2 VH with D56E, S105T
VL: B1 VL with L30Q, S32A, G34S, A60N, F101I
notes: vs H1L1 (Kabat): VH D55E/S100cT; VL L27cQ/S27eA/G29S/A55N/F96I; also called 4G7 H1.202_L1.163
B24: H1.203 / L1.163 (antibody, V domains shown)
VH: B2 VH with D56S, K59E, S105T
VL: B1 VL with L30Q, S32A, G34S, A60N, F101I
notes: vs H1L1 (Kabat): VH D55S/K58E/S100cT; VL L27cQ/S27eA/G29S/A55N/F96I; also called 4G7 H1.203_L1.163
B25: H1 / L1.80 (antibody, V domains shown)
VH: B2 VH
VL: B1 VL with Y39F
notes: vs H1L1 (Kabat): VL Y34F; also called 4G7 H1_L1.80
B26: H1 / L1.68 (antibody, V domains shown)
VH: B2 VH
VL: B1 VL with F101N
notes: vs H1L1 (Kabat): VL F96N; also called 4G7 H1_L1.68
B27: H1.52 / L1.162 (antibody, V domains shown)
VH: B2 VH with S105T
VL: B1 VL with L30Q, S32A, G34A, A60N, F101I
notes: vs H1L1 (Kabat): VH S100cT; VL L27cQ/S27eA/G29A/A55N/F96I; also called 4G7 H1.52_L1.162
B28: H1.204 / L1.161 (antibody, V domains shown)
VH: B2 VH with D56E, K59E, S105T
VL: B1 VL with L30Q, S32V, G34S, A60N, F101I
notes: vs H1L1 (Kabat): VH D55E/K58E/S100cT; VL L27cQ/S27eV/G29S/A55N/F96I; also called 4G7 H1.204_L1.161
B29: H1.201 / L1.163 (antibody, V domains shown)
VH: B2 VH with D56S, S105T
VL: B1 VL with L30Q, S32A, G34S, A60N, F101I
notes: vs H1L1 (Kabat): VH D55S/S100cT; VL L27cQ/S27eA/G29S/A55N/F96I; also called 4G7 H1.201_L1.163
B30: H1 / L1.92 (antibody, V domains shown)
VH: B2 VH
VL: B1 VL with A60L
notes: vs H1L1 (Kabat): VL A55L; also called 4G7 H1_L1.92
B31: H1.203 / L1.164 (antibody, V domains shown)
VH: B2 VH with D56S, K59E, S105T
VL: B1 VL with L30Q, S32A, A60N, F101I
notes: vs H1L1 (Kabat): VH D55S/K58E/S100cT; VL L27cQ/S27eA/A55N/F96I; also called 4G7 H1.203_L1.164
B32: H3L2 (antibody, V domains shown)
VH: B2 VH with K13Q, G16R, K19R, A40M, I48M, S71T, I76T, S85R, E89D, M93V
VL: B1 VL with A9S, T10S, L13A, P15V, E17D, A19V, L21I, E84Q, F88V
notes: also called 4G7 H3L2
B33: H1L3 (antibody, V domains shown)
VH: B2 VH
VL: B1 VL with L13V, L21I, Q42L, E75D, S82R, L83V, P85A, F88V, A89G
notes: also called 4G7 H1L3

target: T1, human CD19 (human, UniProt P15391 20-556); assay: DELFIA competition on Raji cells: unlabeled antibody competes with Eu-labeled anti-CD19 for surface CD19 [upper panel]
T1 construct: also called B-cell surface antigen B4; B-cell antigen CD19
T1 sequence: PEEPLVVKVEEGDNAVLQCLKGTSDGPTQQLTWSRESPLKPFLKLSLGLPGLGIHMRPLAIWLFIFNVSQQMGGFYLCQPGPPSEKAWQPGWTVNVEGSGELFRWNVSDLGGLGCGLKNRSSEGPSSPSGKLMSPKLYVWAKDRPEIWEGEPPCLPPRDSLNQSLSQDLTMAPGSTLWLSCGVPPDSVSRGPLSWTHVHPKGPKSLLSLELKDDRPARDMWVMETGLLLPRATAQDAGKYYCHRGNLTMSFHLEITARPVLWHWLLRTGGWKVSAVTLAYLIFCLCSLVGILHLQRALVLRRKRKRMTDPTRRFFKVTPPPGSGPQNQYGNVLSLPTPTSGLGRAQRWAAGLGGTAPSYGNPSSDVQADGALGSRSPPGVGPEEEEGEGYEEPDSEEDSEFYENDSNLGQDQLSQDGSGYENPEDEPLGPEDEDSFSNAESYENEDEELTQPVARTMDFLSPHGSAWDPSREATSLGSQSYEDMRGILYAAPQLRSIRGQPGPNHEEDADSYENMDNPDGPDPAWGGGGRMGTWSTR

Compared with B1, B2 is 6.7-fold higher in “IC50 (read off the curve)” value: about 3 nM for the first, about 20 nM for the second.

Going from B6 to B10, the “IC50 (read off the curve)” value falls from about 3 nM to about 2 nM (1.5-fold).

B3: binds.
B4: binds.
B5: binds.
B7: binds.
B8: binds.
B9: binds.

target: T1, human CD19; assay: binding affinity relative to the parent H1L1 mAb (Example 5); assay and format not named on the sheet

Going from B11 to B12, the Fold change binding rises from 1.73 fold to 4.73 fold.

Going from B13 to B14, the Fold change binding rises from 3.18 fold to 3.97 fold.

Compared with B15, B16 is lower in Fold change binding: 4.41 fold for the first, 4.07 fold for the second.

Going from B17 to B18, the Fold change binding falls from 4.32 fold to 3.35 fold.

First: B19
Second: B20
The Fold change binding of the first is higher: 5.32 fold for the first, 3.25 fold for the second.

Going from B21 to B22, the Fold change binding falls from 3.74 fold to 1.58 fold.

Compared with B23, B24 is lower in Fold change binding: 3.57 fold for the first, 3.2 fold for the second.

First: B25
Second: B26
The Fold change binding of the first is lower: 1.62 fold for the first, 2.12 fold for the second.

Compared with B27, B28 is lower in Fold change binding: 5.57 fold for the first, 3.27 fold for the second.

Compared with B29, B30 is lower in Fold change binding: 3.87 fold for the first, 1.54 fold for the second.

B31 gave a Fold change binding of 5.58 fold.

target: T1, human CD19; assay: DELFIA competition on Raji cells: unlabeled antibody competes with Eu-labeled anti-CD19 for surface CD19 [lower panel]

Compared with B32, B33 is 2-fold higher in “IC50 (read off the curve)” value: about 10 nM for the first, about 20 nM for the second.
